Assay results published in patent US20250388694A1 (BOOSTIMMUNE, published 2025).
Residue numbers refer to the chain shown, from its start.

B1: Ab10-1 (antibody, V domains shown)
VH: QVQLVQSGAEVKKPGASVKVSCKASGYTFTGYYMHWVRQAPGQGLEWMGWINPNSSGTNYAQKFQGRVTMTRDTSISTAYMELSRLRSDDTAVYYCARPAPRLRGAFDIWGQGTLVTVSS
VL: QSVVTQPPSVSAAPGQKVTISCSGSSSNIGNKKVSWYQQLPVTAPKLLIYDDNKRPSGIPDRFSGSKSGTSATLGITGLQTGDEADYYCATWDSSLRAVVFGGGTKLTVL
notes: Single-residue CDR mutant of Ab10; also called antibody Ab10-1; mutant of Ab10
B2: Ab10-9 (antibody, V domains shown)
VH: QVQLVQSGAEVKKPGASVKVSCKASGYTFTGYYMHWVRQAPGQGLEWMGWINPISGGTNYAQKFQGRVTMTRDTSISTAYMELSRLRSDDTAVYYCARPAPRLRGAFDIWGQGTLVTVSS
VL: B1 VL
notes: Mutant of Ab10 made to prevent post-translational modification; also called antibody Ab10-9; mutant of Ab10
B3: Ab10-7 (antibody, V domains shown)
VH: not shown
VL: B1 VL with K32F
notes: Single-residue CDR mutant of Ab10; also called antibody Ab10-7; mutant of Ab10
B4: Ab10-10 (antibody, V domains shown)
VH: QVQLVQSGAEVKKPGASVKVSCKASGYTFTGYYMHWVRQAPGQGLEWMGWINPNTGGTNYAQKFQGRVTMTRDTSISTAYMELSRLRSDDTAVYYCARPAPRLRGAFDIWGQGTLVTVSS
VL: B1 VL
notes: Mutant of Ab10 made to prevent post-translational modification; also called antibody Ab10-10; mutant of Ab10
B5: Ab10-2 (antibody, V domains shown)
VH: not shown
VL: B1 VL
notes: Single-residue CDR mutant of Ab10; also called antibody Ab10-2; mutant of Ab10
B6: Ab10-8 (antibody, V domains shown)
VH: not shown
VL: B1 VL with A90V
notes: Single-residue CDR mutant of Ab10; also called antibody Ab10-8; mutant of Ab10
B7: Ab10-4 (antibody, V domains shown)
VH: not shown
VL: B1 VL
notes: Single-residue CDR mutant of Ab10; also called antibody Ab10-4; mutant of Ab10
B8: Ab10-6 (antibody, V domains shown)
VH: not shown
VL: B1 VL with N31T
notes: Single-residue CDR mutant of Ab10; also called antibody Ab10-6; mutant of Ab10
B9: Ab10-5 (antibody, V domains shown)
VH: not shown
VL: B1 VL
notes: Single-residue CDR mutant of Ab10; also called antibody Ab10-5; mutant of Ab10
B10: Ab9 (antibody, V domains shown)
VH: QVQLQQSGPGLVKPSQTLSLTCAISGDSVSSNSAAWNWIRQSPSRGLEWLGRTYYRSKWYNDYAVSVKSRITINPDTSKNQFSLQLNSVTPEDTAVYYCAREGITVGRGVMLYFDLWGRGTLVTVSS
VL: DVLMTQSPLSLPVTLGQPASISCRSSQSLVYSDGNTHLKWFQQRPGQSPRRLIYKVSKWDSGVPDRVSGSGSGTDFTLKISRVEAEDVGVYYCMQGTHWPPTFGQGTKVEIK
notes: From Beacon screening; also called antibody Ab9
B11: Ab18 (antibody, V domains shown)
VH: QVQLQQSGPGLVKPSQTLSLTCAISGDSVSSNSAAWNWIRQSPSRGLEWLGRTYYRSKWYNDYAVSVKSRITINPDTSKNQFSLQLNSVTPEDTAVYYCARGGAAVFDYWGQGTLVTVSS
VL: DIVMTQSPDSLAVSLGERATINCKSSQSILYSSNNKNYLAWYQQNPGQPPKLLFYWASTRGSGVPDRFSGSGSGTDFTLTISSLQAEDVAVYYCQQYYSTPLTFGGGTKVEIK
notes: also called antibody Ab18
B12: Ab13 (antibody, V domains shown)
VH: B11 VH
VL: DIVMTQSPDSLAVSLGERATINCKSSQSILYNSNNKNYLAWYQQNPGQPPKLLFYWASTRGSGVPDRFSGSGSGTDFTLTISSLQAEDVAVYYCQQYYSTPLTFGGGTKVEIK
notes: also called antibody Ab13
B13: Ab14 (antibody, V domains shown)
VH: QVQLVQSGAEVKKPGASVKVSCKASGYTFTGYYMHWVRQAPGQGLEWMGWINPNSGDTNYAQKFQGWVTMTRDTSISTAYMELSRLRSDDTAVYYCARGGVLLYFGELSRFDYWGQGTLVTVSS
VL: QSALTQPPSASGSPGQSVAISCTGTSSDVGGYNYVSWYQQHPGKAPQLLIYEVTKRPSGVPDRFSGSKSGNTASLTVSGLQAEDEADYYCASYAGDNNLVFGGGTKLTVL
notes: also called antibody Ab14
B14: Ab15 (antibody, V domains shown)
VH: QVQLVQSGAEVKKPGASVKLSCKAAGYTFTVNAMHWVRQAPGQGLEWMGWINAGTGKTKYSQKFQGRLTITRDTSASTAYMHLSGLRSEDTAVYYCARGRAVAFDPWGQGTLVTVSS
VL: B13 VL with A19T, N33D, G43D, Q47K, L49M, T54N, A91N, D96N
notes: also called antibody Ab15
B15: Ab5 (antibody, V domains shown)
VH: QVQLVQSGAEVKKPGASVKVSCKASGYIFISYAMHWVRQAPGQRLEWMGWINAGNGYTEYSQKFQGRVTITRDTSALTAYMELRSLRSEDTAVYYCARRGYFDWWAFDYWGQGTLVTVSS
VL: EIVLTQSPDFQSVTPKEKVTITCRASQSIGSSLHWYQQKPDQSPKLLIKYASQSFSGVPSRFSGSGSGTDFTLTINSLEAEDAATYYCHQSSSLPQTFGQGTKVEIK
notes: From Beacon screening; also called antibody Ab5

Target: T1, mouse TCTP (mouse, UniProt P63028 1-172)
T1 sequence (looked up): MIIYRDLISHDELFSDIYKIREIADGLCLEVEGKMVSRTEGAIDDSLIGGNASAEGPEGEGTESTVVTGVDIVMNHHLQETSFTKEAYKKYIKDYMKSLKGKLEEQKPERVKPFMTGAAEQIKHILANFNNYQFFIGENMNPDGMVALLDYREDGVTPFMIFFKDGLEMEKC
Test: ELISA on mouse TCTP, binder titrated as scFv (axis [scFv] Log(nM)), OD450 [panel Mouse TCTP]

Q: Does B1 bind?
A: binds

Q: Does B2 bind?
A: binds

Q: Does B3 bind?
A: binds

Q: Does B4 bind?
A: binds

Q: Does B5 bind?
A: binds

Q: Does B6 bind?
A: binds

Q: Does B7 bind?
A: binds

Q: For B8, which “EC50 (read off the curve)” value is on record?
A: ~9 nM

Q: Does B9 bind?
A: binds

Target: T2, Human TCTP (translationally controlled tumor protein) (human, UniProt P13693 1-172)
T2 construct: also called HRF; Tpt1
T2 sequence: T1 sequence (looked up) with L13M, A42N, V67I, L99I, K107R, N130K, F159Y
Test: ELISA on human TCTP, binder titrated as scFv (axis [scFv] Log(nM)), OD450 [panel Human TCTP]

Q: Which “EC50 (read off the curve)” value does the source give for B1 here?
A: ~8 nM

Q: Does B2 bind?
A: binds

Q: B3 was tested. Which “EC50 (read off the curve)” value did it give?
A: ~20 nM

Q: Does B4 bind?
A: binds

Q: Does B5 bind?
A: binds

Q: Does B6 bind?
A: binds

Q: Does B7 bind?
A: binds

Q: Which “EC50 (read off the curve)” value does the source give for B8 here?
A: ~1 nM

Q: Does B9 bind?
A: binds

Target: T2, Human TCTP (translationally controlled …)
Test: ELISA, human TCTP coated at 1 µg/ml, antibody titrated, OD 450 nm
Method: ELISA was carried out to quantitatively analyze the binding capacity of selected antibodies to antigens. To this end, human TCTP was attached to an ELISA plate at a concentration of 1 μg/ml and then treated with antibodies of various concentrations to check the relative binding capacity. As a result of the measurement, all of antibodies Ab1, Ab2, Ab3, Ab4, Ab5, Ab6, Ab7, Ab8, Ab9, Ab12, Ab13, Ab14, Ab15, Ab17, Ab18, Ab19, Ab20, Ab21, and Ab22 were confirmed to bind well to human TCTP (FIGS. 1a and 1b).

Q: Does B10 bind?
A: binds

Q: Does B11 bind?
A: binds

Q: B12 was tested. Which “EC50 (read off the curve)” value did it give?
A: ~10 ng/mL

Q: Does B13 bind?
A: binds

Q: Does B14 bind?
A: binds

Q: Does B15 bind?
A: binds
